The supplement of paper PMC7877785
± gives the uncertainty stated by the source.

Assay: self-splicing fitness, log relative to wild type (ln ratio); higher = more splicing; Tetrahymena group I intron in knt gene, E. coli kanamycin selection, DiMSum; sequences stand for … in CUCUCU…GGAGGGAAAAGUUAUCAGGCAUGCACCUGGUAGCUAGUCUUUAAACCAAUAGAUUGCAUCGGUUUAAAAGGCAAGACCGUCAAAUUGCGGGAAAGGGGUCAACAGCCGUUCAGUACCAAGUCUCAGGGGAAACUUUGAGAUGGCCUUGCAAAGGGUAUGGUAAUAAGCUGACGGACAUGGUCCUAACCACGCAGCCAAGUCCUAAGUCAACAGAUCUUCUGUUGAUAUGGAUGCAGUUCACAGACUAAAUGUCGGUCGGGGAAGAUGUAUUCUUCUCAUAAGAUAUAGUCGGACCUCUCCUUAAUGGGAGCUAGCGGAUGAAGUGAUGCAACACUGGAGCCGCUGGGAACUAAUUUGUAUGCGAAAGUAUAUUGAUUAGUUUUGGAGUACUCGUGGUCG
In short: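 Pooled colonies went to amplicon sequencing on an Illumina HiSeq 2500 after six replicate transformations. The plates were LB agar with 100 μg/mL carbenicillin, 50 μM IPTG and 0.2% rhamnose, with or without 25 μg/mL kanamycin, incubated overnight at 37°C or 30°C. The E. coli BL21(DE3) library had all eight P1ex-region intron nucleotides randomised, the intron placed in the knt kanamycin-resistance gene on pET-22b(+). DiMSum fitness is the error-weighted combination of replicate fold changes, kanamycin against none, normalised to wild type.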

Sequence	self-splicing fitness (ln) (30 °C)	self-splicing fitness (ln) (37 °C)
ACGGAGCAAUAUUACGCACA	-2.08 ± 0.36	-2.46 ± 0.37
ACGGAGCAAUAUUACGCAGC	-3.02 ± 0.3	–
ACGGAGCAAUAUUACGCCCA	-2.81 ± 0.43	-1.92 ± 0.37
ACGGAGCAAUAUUACGCGGG	-2.3 ± 0.18	-0.332 ± 0.15
ACGGAGCAAUAUUACGCUAA	–	0.642 ± 0.24
ACGGAGCAAUAUUACGCUGU	–	-2.56 ± 0.25
ACGGAGCAAUAUUACGGGGC	-3.39 ± 0.35	-3.86 ± 0.46
ACGGAGCAAUAUUACGGUGA	-3.69 ± 0.23	-1.55 ± 0.21
ACGGAGCAAUAUUACGUAAC	-3.72 ± 0.37	-1.66 ± 0.22
ACGGAGCAAUAUUACGUGCA	–	-1.4 ± 0.22
ACGGAGCAAUAUUACGUGCU	-2.34 ± 0.19	–
ACGGAGCAAUAUUACGUGGA	-3.74 ± 0.37	-2.26 ± 0.24
ACGGAGCAAUAUUACGUUGA	-2.94 ± 0.2	-2.29 ± 0.21
ACGGAGCAAUAUUACGUUGC	–	-3.12 ± 0.4
ACGUAGCAAUAUUACGACCG	-0.218 ± 0.1	0.0549 ± 0.12
ACGUAGCAAUAUUACGAGCC	-3.28 ± 0.35	-2.55 ± 0.44
ACGUAGCAAUAUUACGAGCG	-1.53 ± 0.11	-0.668 ± 0.12
ACGUAGCAAUAUUACGAUGG	-3.99 ± 0.35	-1.52 ± 0.29
ACGUAGCAAUAUUACGCACG	-2.31 ± 0.2	-1.98 ± 0.19
ACGUAGCAAUAUUACGCAUC	-3.3 ± 0.22	-0.518 ± 0.29
ACGUAGCAAUAUUACGCCUA	-0.946 ± 0.1	-0.412 ± 0.099
ACGUAGCAAUAUUACGCCUG	-1.29 ± 0.077	0.00322 ± 0.11
ACGUAGCAAUAUUACGCGCU	-1.89 ± 0.11	-0.586 ± 0.16
ACGUAGCAAUAUUACGCUAA	-1.84 ± 0.21	-0.48 ± 0.13
ACGUAGCAAUAUUACGCUGG	-2.32 ± 0.18	-2.64 ± 0.41

Sequence	self-splicing fitness (ln) (30 °C)	self-splicing fitness (ln) (37 °C)
ACGUAGCAAUAUUACGCUUA	-1.49 ± 0.11	-0.764 ± 0.12
ACGUAGCAAUAUUACGGACU	-2.66 ± 0.3	-0.29 ± 0.24
ACGUAGCAAUAUUACGGCUG	-3.21 ± 0.28	-1.83 ± 0.25
ACGUAGCAAUAUUACGGGAU	-2.67 ± 0.16	-1.97 ± 0.16
ACGUAGCAAUAUUACGGGCU	-1.15 ± 0.063	-1.18 ± 0.1
ACGUAGCAAUAUUACGGGUC	-3.56 ± 0.19	-3.42 ± 0.25
ACGUAGCAAUAUUACGGUAA	-1.67 ± 0.2	-1.39 ± 0.14
ACGUAGCAAUAUUACGGUGG	-5.08 ± 0.28	-2.92 ± 0.16
ACGUAGCAAUAUUACGGUUC	-3.18 ± 0.17	-2.49 ± 0.31
ACGUAGCAAUAUUACGGUUG	-2.6 ± 0.1	-0.902 ± 0.12
ACGUAGCAAUAUUACGGUUU	-2.03 ± 0.096	-0.957 ± 0.11
ACGUAGCAAUAUUACGUAAG	-3.51 ± 0.17	-2.45 ± 0.22
ACGUAGCAAUAUUACGUAAU	-2.35 ± 0.13	-2.34 ± 0.15
ACGUAGCAAUAUUACGUCCU	-1.99 ± 0.13	-0.452 ± 0.13
ACGUAGCAAUAUUACGUCGG	-3.32 ± 0.33	-2.07 ± 0.2
ACGUAGCAAUAUUACGUCGU	-3.52 ± 0.15	-2.59 ± 0.15
ACGUAGCAAUAUUACGUGCA	-2.38 ± 0.17	-0.124 ± 0.096
ACGUAGCAAUAUUACGUUUG	-3.46 ± 0.17	-2.95 ± 0.18
ACUAAGCAAUAUUACGACGG	-0.271 ± 0.074	0.203 ± 0.094
ACUAAGCAAUAUUACGAGUA	-2.35 ± 0.17	-1.78 ± 0.18
ACUAAGCAAUAUUACGAUGA	-0.267 ± 0.068	-0.253 ± 0.076
ACUAAGCAAUAUUACGCAGA	-1.89 ± 0.092	-1.5 ± 0.083
ACUAAGCAAUAUUACGCAGG	-2.02 ± 0.088	-0.927 ± 0.092
ACUAAGCAAUAUUACGCCCU	0.438 ± 0.23	-0.36 ± 0.26
ACUAAGCAAUAUUACGCGGC	-3.74 ± 0.23	-1.85 ± 0.18

Sequence	self-splicing fitness (ln) (30 °C)	self-splicing fitness (ln) (37 °C)
ACUAAGCAAUAUUACGCUUG	-3.11 ± 0.21	-2.1 ± 0.19
ACUAAGCAAUAUUACGGCAG	-1.71 ± 0.1	-0.238 ± 0.11
ACUAAGCAAUAUUACGGCCC	-0.668 ± 0.18	-0.484 ± 0.27
ACUAAGCAAUAUUACGGCCG	-0.147 ± 0.087	-0.306 ± 0.12
ACUAAGCAAUAUUACGGCGG	-0.98 ± 0.07	-0.452 ± 0.1
ACUAAGCAAUAUUACGUACA	-1.55 ± 0.086	-1.14 ± 0.087
ACUAAGCAAUAUUACGUACG	-1.76 ± 0.12	-0.814 ± 0.16
ACUAAGCAAUAUUACGUCCA	-1.54 ± 0.12	-1.22 ± 0.16
ACUAAGCAAUAUUACGUCCU	-0.876 ± 0.095	0.0118 ± 0.14
ACUAAGCAAUAUUACGUCGC	-3.12 ± 0.18	-1.86 ± 0.2
ACUAAGCAAUAUUACGUCUU	-1.5 ± 0.075	-1.14 ± 0.078
ACUAAGCAAUAUUACGUUAG	-2.59 ± 0.13	-2.1 ± 0.17
ACUAAGCAAUAUUACGUUUC	-4.35 ± 0.26	-1.85 ± 0.19
ACUCAGCAAUAUUACGACAG	-1.94 ± 0.11	-0.382 ± 0.12
ACUCAGCAAUAUUACGAGCU	-1.04 ± 0.064	-0.447 ± 0.079
ACUCAGCAAUAUUACGAUUU	0.00163 ± 0.057	0.417 ± 0.073
ACUCAGCAAUAUUACGCAGC	-2.14 ± 0.079	-0.903 ± 0.093
ACUCAGCAAUAUUACGCAUA	-1.35 ± 0.082	-0.543 ± 0.094
ACUCAGCAAUAUUACGCAUU	-0.878 ± 0.049	-0.294 ± 0.06
ACUCAGCAAUAUUACGCCAG	-0.898 ± 0.087	-1.27 ± 0.15
ACUCAGCAAUAUUACGCCGU	-1.24 ± 0.076	-0.58 ± 0.093
ACUCAGCAAUAUUACGCCUG	-3.39 ± 0.22	-1.5 ± 0.2
ACUCAGCAAUAUUACGCGGU	-3.73 ± 0.19	-2.01 ± 0.21
ACUCAGCAAUAUUACGCGUG	-1.35 ± 0.073	-0.547 ± 0.081
ACUCAGCAAUAUUACGCUCA	-0.566 ± 0.096	0.105 ± 0.14

Sequence	self-splicing fitness (ln) (30 °C)	self-splicing fitness (ln) (37 °C)
ACUCAGCAAUAUUACGCUCG	-0.26 ± 0.087	0.176 ± 0.12
ACUCAGCAAUAUUACGGCGG	-0.825 ± 0.078	-0.0415 ± 0.095
ACUCAGCAAUAUUACGGGAG	-1.56 ± 0.051	-1.11 ± 0.067
ACUCAGCAAUAUUACGGUCC	-1.91 ± 0.11	-0.708 ± 0.14
ACUCAGCAAUAUUACGUAGC	-1.24 ± 0.069	-0.786 ± 0.11
ACUCAGCAAUAUUACGUCAA	-2.56 ± 0.1	-1.78 ± 0.14
ACUCAGCAAUAUUACGUCGC	-2.57 ± 0.24	-0.332 ± 0.17
ACUCAGCAAUAUUACGUGGA	-1.96 ± 0.078	-1.54 ± 0.082
ACUCAGCAAUAUUACGUGGU	-3.75 ± 0.12	-2.75 ± 0.12
ACUCAGCAAUAUUACGUUUC	-2.88 ± 0.17	-2.33 ± 0.21
ACUGAGCAAUAUUACGAAAA	–	-1.32 ± 0.43
ACUGAGCAAUAUUACGAAAC	-4.21 ± 0.42	-1.42 ± 0.38
ACUGAGCAAUAUUACGAAAG	-2.67 ± 0.15	-1.73 ± 0.18
ACUGAGCAAUAUUACGAAGC	–	-2.04 ± 0.46
ACUGAGCAAUAUUACGAAUC	-3.54 ± 0.36	-2.55 ± 0.21
ACUGAGCAAUAUUACGACCC	–	-0.357 ± 0.33
ACUGAGCAAUAUUACGACUC	-2.18 ± 0.16	-1.13 ± 0.2
ACUGAGCAAUAUUACGAGAC	-2.78 ± 0.22	-2.63 ± 0.2
ACUGAGCAAUAUUACGAGAU	-4.18 ± 0.33	-2.27 ± 0.21
ACUGAGCAAUAUUACGAGCC	-3.59 ± 0.4	–
ACUGAGCAAUAUUACGAUGC	-2.69 ± 0.16	-0.416 ± 0.15
ACUGAGCAAUAUUACGAUUU	-1.12 ± 0.082	-0.446 ± 0.12
ACUGAGCAAUAUUACGCAUA	-2.14 ± 0.31	-1.77 ± 0.44
